Data reported in patent publication US20210060072A1 (CRISPR THERAPEUTICS, published 2021).

Target: T1, CD70 on CD70-expressing cancer cell lines (A498, ACHN, SK-OV-3, Hs-766T, NCI-H1975, Calu-1, DU 145, MM.1S, … (human, UniProt P32970 1-193))
T1 sequence (looked up): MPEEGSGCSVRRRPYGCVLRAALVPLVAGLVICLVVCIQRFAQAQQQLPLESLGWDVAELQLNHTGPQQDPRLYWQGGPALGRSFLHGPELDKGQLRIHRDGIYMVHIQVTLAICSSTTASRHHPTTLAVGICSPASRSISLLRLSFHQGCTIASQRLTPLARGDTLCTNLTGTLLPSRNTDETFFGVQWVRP
Assay: cell-based or functional assay

B1: anti-CD70 CAR (CD70B scFv with 41BB; CD8 transmembrane domain, 41BB co-stimulatory domain, CD3z signaling domain) (other)
chain: QVQLVQSGAEVKKPGASVKVSCKASGYTFTNYGMNWVRQAPGQGLKWMGWINTYTGEPTYADAFKGRVTMTRDTSISTAYMELSRLRSDDTAVYYCARDYGDYGMDYWGQGTTVTVSSGGGGSGGGGSGGGGSGDIVMTQSPDSLAVSLGERATINCRASKSVSTSGYSFMHWYQQKPGQPPKLLIYLASNLESGVPDRFSGSGSGTDFTLTISSLQAEDVAVYYCQHSREVPWTFGQGTKVEIKSAAAFVPVFLPAKPTTTPAPRPPTPAPTIASQPLSLRPEACRPAAGGAVHTRGLDFACDIYIWAPLAGTCGVLLLSLVITLYCNHRNRKRGRKKLLYIFKQPFMRPVQTTQEEDGCSCRFPEEEEGGCELRVKFSRSADAPAYQQGQNQLYNELNLGRREEYDVLDKRRGRDPEMGGKPRRKNPQEGLYNELQKDKMAEAYSEIGMKGERRRGKGHDGLYQGLSTATKDTYDALHMQALPPR
- cell killing, 24 hours of co-culture, A498, ACHN, SK-OV-3 and Hs-766T cells, 1:1 effector:target cell ratio (3xKO and 4xKO CD70 CAR+ T cells): > 50%
- cell killing, 24 hours of co-culture, A498, ACHN, SK-OV-3 and Hs-766T cells, 4:1 effector:target cell ratio (3xKO and 4xKO CD70 CAR+ T cells): > 60%
- cell killing, 24 hours of co-culture, NCI-H1975, Calu-1 and DU 145 cells, 4:1 effector:target cell ratio: > 30%
- cell killing, 96 hours of co-culture, SKOV-3, Hs-766T and NIC-H1975 cells, 1:1 effector:target cell ratio: > 80%
